Patent US20190023793A1 (Innovent, published 2019)

Assays:
B7H4 (human) = molecular target: T1, B7H4 (human) (human, UniProt Q7Z7D3 25-258, limits assumed); test: ELISA, antigen coated at 0.5 µg per well, biotinylated nanobody, streptavidin-HRP
T1 construct: also called PD-L1 family members
T1 sequence (looked up): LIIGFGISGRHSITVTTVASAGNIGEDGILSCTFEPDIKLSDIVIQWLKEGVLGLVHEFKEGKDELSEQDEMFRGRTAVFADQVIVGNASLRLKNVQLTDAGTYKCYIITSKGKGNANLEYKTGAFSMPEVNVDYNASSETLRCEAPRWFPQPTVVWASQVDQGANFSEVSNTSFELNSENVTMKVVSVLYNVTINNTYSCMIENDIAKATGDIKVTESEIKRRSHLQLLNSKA
Experimental: (§1) (2) The antigen proteins PD-L1 (human), PD-L1 (rat), PD-L1 (monkey), PD-L2 (human), B7H4 (human), B7H3 (human) were coated: 0.5 μg per well (5 μg/mL, 100 μL), IgG1 was coated as a control, left overnight at 4° C.;
(§2) (4) Each biotinylated nanobodies were diluted to 10 μg/mL, and 100 μL of each was incubated in each well and allowed to react at RT for 1 hour.
(§3) (5) The unbound nanobodies were washed with PBST, 100 μL of streptavidin-HRP (1:1000 dilution) was added, and the resultant was let stand for 1 hour at room temperature.

PD-L2 (human) = molecular target: T2, PD-L2 (human) (human, UniProt Q9BQ51 20-219, limits assumed); test: as above
T2 construct: also called PD-L1 family members
T2 sequence (looked up): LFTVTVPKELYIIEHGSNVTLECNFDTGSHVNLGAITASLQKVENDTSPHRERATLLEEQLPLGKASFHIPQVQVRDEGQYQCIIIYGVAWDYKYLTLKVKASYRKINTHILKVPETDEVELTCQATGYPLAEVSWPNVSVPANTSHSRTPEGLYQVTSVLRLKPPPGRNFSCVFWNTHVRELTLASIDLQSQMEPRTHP
Experimental: as §1, §2, §3

B7H3 (human) = molecular target: T3, B7H3 (human) (human, UniProt Q5ZPR3 29-461, limits assumed); test: as above
T3 construct: also called PD-L1 family members
T3 sequence (looked up): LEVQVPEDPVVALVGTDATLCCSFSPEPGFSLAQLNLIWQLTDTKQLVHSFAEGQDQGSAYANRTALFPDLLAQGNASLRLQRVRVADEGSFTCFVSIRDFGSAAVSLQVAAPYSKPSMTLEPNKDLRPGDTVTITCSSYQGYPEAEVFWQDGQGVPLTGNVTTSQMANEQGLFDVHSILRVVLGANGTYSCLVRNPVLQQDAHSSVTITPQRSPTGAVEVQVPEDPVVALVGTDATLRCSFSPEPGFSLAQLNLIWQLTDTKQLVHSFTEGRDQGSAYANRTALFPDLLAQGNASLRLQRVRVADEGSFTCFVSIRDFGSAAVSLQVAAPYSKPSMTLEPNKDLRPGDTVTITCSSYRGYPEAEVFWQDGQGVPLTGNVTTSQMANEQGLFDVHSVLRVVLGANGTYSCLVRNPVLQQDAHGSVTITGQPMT
Experimental: as §1, §2, §3

[1] = molecular target: T4, PD-L1 (human) antigen protein (human, UniProt Q9NZQ7 19-238, limits assumed); test: SPR, BiaCore T200, antigen immobilized on CM-5 chip, nanobody in five concentrations
T4 construct: also called human PD-L1; immobile phase antigens
T4 sequence (Q9NZQ7 19-238 limits assumed): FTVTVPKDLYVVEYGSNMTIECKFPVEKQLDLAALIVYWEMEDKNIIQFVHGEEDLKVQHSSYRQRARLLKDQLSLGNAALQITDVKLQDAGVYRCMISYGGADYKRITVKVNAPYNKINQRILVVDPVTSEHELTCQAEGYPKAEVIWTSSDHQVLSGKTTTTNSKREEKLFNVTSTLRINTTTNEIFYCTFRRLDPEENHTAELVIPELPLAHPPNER
Experimental: BiaCore T200 was used for detection. (1) Immobilization: The immobile phase antigens were immobilized on the surface of a CM-5 sensor chip using a carboxy-amino reaction;
(2) Binding: The nanobodies were diluted with HBS buffer to an appropriate concentration (five concentration gradients) to observe the antigen-nanobody binding process;
(4) Analysis of the experimental results.

B1: PD-L1 Nb-Fc protein (nanobody before humanization fused to IgG1 Fc) (Fc fusion)
chain: QVQLQESGGGSVQAGGSLRLSCQASAYTISRNSMGWFRQAPGKQREGVAAIESDGSTSYSDSVKGRFTISLGNAKNTLYLEMNSLKPEDTAMYYCAAPKVGLGPRTALGHLAFMTLPALNYWGQGTQVTVSS
notes: also called PD-L1 nanobodies; nanobodies before humanization; not shown: IgG1 Fc encoded by the pFUSE-IgG1 vector (Invivogen)
B1: no binding (tested: 10 µg/mL) (B7H4 (human)); no binding (tested: 10 µg/mL) (PD-L2 (human)); no binding (tested: 10 µg/mL) (B7H3 (human)). It also gave a Kd [1] of 2.34 nM.

B2: humanized PD-L1 nanobody with Fc tag (humanized Nb-Fc) (Fc fusion)
chain: QVQLQESGGGLVQPGGSLRLSCAASAYTISRNSMGWFRQAPGKGLEGVAAIESDGSTSYSDSVKGRFTISLDNSKNTLYLEMNSLRAEDTAVYYCAAPKVGLGPRTALGHLAFMTLPALNYWGQGTLVTVSS
notes: also called humanized PD-L1 nanobodies; humanized nanobodies; not shown: IgG1 Fc encoded by the pFUSE-IgG1 vector (Invivogen)
B2: no binding (tested: 10 µg/mL) (B7H4 (human)); no binding (tested: 10 µg/mL) (PD-L2 (human)); no binding (tested: 10 µg/mL) (B7H3 (human)). The Kd [1] was 2.26 nM.
